Common to all, as to assay: multiplex microsphere immunoassay
The target of experiment [1] is T1, GII.17/2015 VLP (norovirus Hu/GII.17/HKG/2015/CUHK-NS-513).
T1 construct: also called Hu/GII.17/HKG/2015/CUHK-NS-513
T1 chain: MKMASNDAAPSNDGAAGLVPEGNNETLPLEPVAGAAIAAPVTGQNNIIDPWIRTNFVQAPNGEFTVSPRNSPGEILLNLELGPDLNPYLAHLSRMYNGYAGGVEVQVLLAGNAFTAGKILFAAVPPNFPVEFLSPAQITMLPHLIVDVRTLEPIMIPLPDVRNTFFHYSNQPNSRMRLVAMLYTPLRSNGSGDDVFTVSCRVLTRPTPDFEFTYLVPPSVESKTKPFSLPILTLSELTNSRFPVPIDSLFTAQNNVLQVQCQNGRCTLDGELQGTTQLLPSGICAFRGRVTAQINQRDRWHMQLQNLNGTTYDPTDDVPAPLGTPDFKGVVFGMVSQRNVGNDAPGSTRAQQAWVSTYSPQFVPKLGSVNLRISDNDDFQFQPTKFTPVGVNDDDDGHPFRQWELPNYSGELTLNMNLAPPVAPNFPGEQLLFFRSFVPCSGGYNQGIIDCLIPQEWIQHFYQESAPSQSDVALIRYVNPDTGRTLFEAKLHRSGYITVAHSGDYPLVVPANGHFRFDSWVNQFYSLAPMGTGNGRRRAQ

Experiment [2] concerns the target T2, GII.4/Sydney VLP (norovirus …, UniProt P54635 1-538).
T2 construct: also called Hu/GII.4/Sydney/NSW0514/2012/AU
T2 chain: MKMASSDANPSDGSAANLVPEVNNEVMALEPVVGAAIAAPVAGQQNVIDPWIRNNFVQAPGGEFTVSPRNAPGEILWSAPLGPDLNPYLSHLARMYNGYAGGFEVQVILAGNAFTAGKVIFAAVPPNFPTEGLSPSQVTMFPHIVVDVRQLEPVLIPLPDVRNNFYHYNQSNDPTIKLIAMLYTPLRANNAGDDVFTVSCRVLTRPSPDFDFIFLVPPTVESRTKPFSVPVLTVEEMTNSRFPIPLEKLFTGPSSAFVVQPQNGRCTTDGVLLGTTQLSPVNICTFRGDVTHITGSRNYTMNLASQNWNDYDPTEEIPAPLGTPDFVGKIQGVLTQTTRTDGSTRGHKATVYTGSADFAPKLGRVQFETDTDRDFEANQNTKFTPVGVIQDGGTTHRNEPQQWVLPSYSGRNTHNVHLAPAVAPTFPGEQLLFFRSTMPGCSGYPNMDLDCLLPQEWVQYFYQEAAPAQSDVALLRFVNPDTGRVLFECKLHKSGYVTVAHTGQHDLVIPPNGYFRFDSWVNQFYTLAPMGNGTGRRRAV

For experiment [3], the target named is T3, GII.4/New Orleans VLP (norovirus Hu/GII.4/New …, UniProt P54635 1-539).
T3 construct: also called Hu/GII.4/New Orleans1805/2009/USA
T3 chain: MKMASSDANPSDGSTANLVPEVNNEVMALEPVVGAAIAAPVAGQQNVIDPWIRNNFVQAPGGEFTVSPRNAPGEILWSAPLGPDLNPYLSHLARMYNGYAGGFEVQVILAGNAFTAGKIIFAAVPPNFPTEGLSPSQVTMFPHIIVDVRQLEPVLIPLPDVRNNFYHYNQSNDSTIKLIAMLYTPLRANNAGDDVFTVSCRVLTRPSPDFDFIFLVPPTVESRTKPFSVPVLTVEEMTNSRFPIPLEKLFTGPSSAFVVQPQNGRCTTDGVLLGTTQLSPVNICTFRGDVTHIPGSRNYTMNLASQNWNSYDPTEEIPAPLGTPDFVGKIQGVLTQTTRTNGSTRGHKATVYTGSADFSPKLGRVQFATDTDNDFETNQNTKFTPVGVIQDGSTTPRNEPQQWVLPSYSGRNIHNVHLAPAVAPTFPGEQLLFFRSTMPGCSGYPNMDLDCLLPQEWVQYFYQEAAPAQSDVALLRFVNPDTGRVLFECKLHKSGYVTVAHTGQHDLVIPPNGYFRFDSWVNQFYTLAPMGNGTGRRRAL

The target in experiment [4] is T4, GII.7 VLP (norovirus Hu/GII.7/NSW088L/2007/AUS).
T4 construct: also called Hu/GII.7/NSW088L/2007/AUS
T4 chain: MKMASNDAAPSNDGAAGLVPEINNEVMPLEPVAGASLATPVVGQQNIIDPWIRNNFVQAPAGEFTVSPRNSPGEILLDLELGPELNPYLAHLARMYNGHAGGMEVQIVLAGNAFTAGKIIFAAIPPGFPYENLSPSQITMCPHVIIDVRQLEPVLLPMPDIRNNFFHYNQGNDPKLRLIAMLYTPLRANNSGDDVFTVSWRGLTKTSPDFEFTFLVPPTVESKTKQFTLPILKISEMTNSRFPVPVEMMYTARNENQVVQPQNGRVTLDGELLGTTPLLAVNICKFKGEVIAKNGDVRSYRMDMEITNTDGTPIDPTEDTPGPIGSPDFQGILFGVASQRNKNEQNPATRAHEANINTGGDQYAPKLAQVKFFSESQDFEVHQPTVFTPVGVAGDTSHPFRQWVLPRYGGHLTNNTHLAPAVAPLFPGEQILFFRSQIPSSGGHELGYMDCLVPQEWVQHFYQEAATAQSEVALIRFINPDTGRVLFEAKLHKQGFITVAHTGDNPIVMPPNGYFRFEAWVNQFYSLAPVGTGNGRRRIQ

Experiment [5] deals with T5, GII.2 VLP (norovirus Hu/GII.2/OH10026/2010/JP).
T5 chain: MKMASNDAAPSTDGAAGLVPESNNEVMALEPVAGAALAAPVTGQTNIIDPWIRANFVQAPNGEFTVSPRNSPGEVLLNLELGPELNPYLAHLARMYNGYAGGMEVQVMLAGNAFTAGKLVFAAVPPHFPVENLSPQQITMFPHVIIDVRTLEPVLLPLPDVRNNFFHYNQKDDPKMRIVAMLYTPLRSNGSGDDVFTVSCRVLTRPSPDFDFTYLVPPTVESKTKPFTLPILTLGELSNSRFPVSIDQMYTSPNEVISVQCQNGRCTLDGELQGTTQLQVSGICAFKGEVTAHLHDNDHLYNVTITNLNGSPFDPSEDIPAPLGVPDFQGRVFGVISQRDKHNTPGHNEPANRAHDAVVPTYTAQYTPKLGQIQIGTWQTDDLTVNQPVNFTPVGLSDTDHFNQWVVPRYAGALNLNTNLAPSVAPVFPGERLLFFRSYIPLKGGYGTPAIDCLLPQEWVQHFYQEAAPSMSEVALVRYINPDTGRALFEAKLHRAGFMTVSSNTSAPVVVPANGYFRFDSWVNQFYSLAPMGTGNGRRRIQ

B1: human mAb 1431 (antibody, V domains shown)
VH: QVQLVQSGGGLVQPGGSLRLSCAASGFAFSNHGMHWVRQAPGKGLEWLSYISGSTGAIHYANSVKGRFTISRDNARNSLDLQMNSLGDEDTAVYYCARDGPRPDGTGYAGPSNDYWGQGTLVSVSS
VL: EIVLTQSPASLSLSPGERATLSCKASRSISIYLAWYQQKPGQAPRLLIYDASYRAIGIPARFSGSGSGTDFTLTISNLEPEDFAVYYCQHRSSWPALTFGGGTKVEI
notes: also called A1431
With B1, the binding result in experiment [1], in experiment [4] and in experiment [5] was “no binding” throughout. In addition, the EC50 in experiment [2] amounted to 0.026 µg/mL; in experiment [3], 0.018 µg/mL.

B2: human mAb 1227 (antibody, V domains shown)
VH: QVQLVQSGGGMVQPGGSLSLSCAASGFTLSNYAMTWVRQAPGKGLEWVSSIGGSGGTTYYADSVKGRFTISRDSSMNTLYLQMSNLRAGDTAVYYCAKDKTRTLRLGYSGMDVWGQGTTVTVSS
VL: DIRLTQSPSSLSASVGDRVTITCRASQSISSYLNWYQQKPGKAPDLLIYGASSLQSGVPSRFSGSGSGTDFTLTISSLQPEDFGNYYCQQSFSTPRTFGQGTKVEL
notes: also called A1227
As to B2, the EC50 is 0.012 µg/mL in experiment [1]; 0.012 µg/mL in experiment [2]; 0.007 µg/mL in experiment [3]; 9 ng/mL in experiment [4]; 0.105 µg/mL in experiment [5].

The EC50 is the concentration needed to bring the measured effect to its halfway point. Lower therefore signals higher potency in that assay.

The values above are taken from US20240402174A1 (Takeda / Millennium, published 2024).
